T1: HuNoV GII.2 VLP (Human norovirus GII.2, UniProt A0A291L9K1 1-542)
T1 sequence: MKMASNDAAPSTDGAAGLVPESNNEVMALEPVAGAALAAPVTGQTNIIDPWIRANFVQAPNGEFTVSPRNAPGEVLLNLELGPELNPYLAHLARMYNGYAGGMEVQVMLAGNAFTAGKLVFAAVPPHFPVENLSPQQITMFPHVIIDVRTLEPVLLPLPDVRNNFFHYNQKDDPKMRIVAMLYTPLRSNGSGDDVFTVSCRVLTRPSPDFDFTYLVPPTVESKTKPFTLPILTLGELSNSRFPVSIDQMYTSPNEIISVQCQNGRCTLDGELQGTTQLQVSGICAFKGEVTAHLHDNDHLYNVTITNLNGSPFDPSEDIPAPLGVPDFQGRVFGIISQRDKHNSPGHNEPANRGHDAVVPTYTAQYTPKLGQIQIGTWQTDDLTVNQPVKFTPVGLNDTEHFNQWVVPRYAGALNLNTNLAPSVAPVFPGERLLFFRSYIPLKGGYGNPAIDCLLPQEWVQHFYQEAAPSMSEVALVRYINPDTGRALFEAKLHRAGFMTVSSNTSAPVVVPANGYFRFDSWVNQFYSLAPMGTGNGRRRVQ


Target: T1, HuNoV GII.2 VLP
Assay: dot blot

Row | Binder | binding result
1 | GGAACACGACCCGTCTGTGGCCATCACAGTACAGCATCGTCGTG (ssDNA) [AP17-4] | binds
2 | AACACGACAACCCTGTGACCAACGAACCACACCAAAGTGGGC (ssDNA) [AP4-2] | binds

— paper PMC11829585
